Experimental data reported in the nanobody polyreactivity screen of Harvey et al. (2022).

experiment: yeast display, Sf9 membrane polyspecificity reagent, FACS + sequencing; frameworks hold sequencing errors
In short: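 Polyreactivity labels are assigned by the sorting gate from which each nanobody was recovered. The gates were low and high (top ~1%), set on anti-HA fluorescence for expression and streptavidin fluorescence for reagent binding. Before sorting, galactose-induced (36–48 hours) yeast display cells were stained for 1 hour at 4 °C with 10% biotinylated, detergent-solubilized Sf9 membrane reagent.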

Row | Sequence | polyreactivity (PSR sort gate)
1 | QVQLVESGGGLVQAGVSLRISCAASGFIFYYYAMGWYRQAPGKERELVAAISWSGGSTYYADSVKGRFTISRDNAKNTVYLQLNSLKPEDTSVYYCNARFRYARYSQRYDYWGQGTQVTVSS | high polyreactivity
2 | QVQLVESGGGLVQAGGSLRLSCAASGITFLYYAMGWYRQAPGTERELVAAITSSGGRTYYADSVKGRFTISRDNAKNTVCLQMNSLKPEDTAVYYCAADSRTYNGGYYWGQGTQVTVSS | high polyreactivity
3 | QVQLVESGGGLVQAGGSLRLSCAASGLTFIFYAMGWYRQAPGKERELVATIRRSGSTYYADSVKGRFTISRDNAKNTVYLQMNSLKPEDTAVYYCNARYPYSYGDYWGQGTQVTVSS | high polyreactivity
4 | QVQLVESGGGLVQAGGSLLLSCAASGRTFSRNAMGWYRQAPGKERELVASIRSGGTTNYADSVKGRFTISRDNAKNTVYLQMNSLKPEVTAVYYCNAGDTFLDPCSQYLFDYWGQGTLVTVSS | low polyreactivity
5 | QVQLVESGGGLVEAGGSLRLSCAASGRIFRKYTMGWYRQAPGKERELVAAISRNGGDTYYADSVKGRFTISRDNAKNTVYLLMNSLKPEDTAVYYCNARTPTDSTHFDYWGQGTQVSVSS | low polyreactivity
6 | QVQLVESGGGLVQAGGRLRLSCAASGRIFYHNAMGWYRQAPGKERELVAAITWSGVSTYYADSVKGRFTISRDNAKNTVYLQMNSLKPEDTAVYYCAKRGRWDWDFNYWGQGTQVTVSS | high polyreactivity
7 | QVQLVESGGGLVQAGGSLRLSCAASVRIFAKYAMGWYRQAPGKERELVAAIRWRGGNTYYADSVKGRFTISRDNAKNTVYLQMNSLKPEDTAVYYCAAGTWLGRGYIGQVESWGQGTQVTVSS | high polyreactivity
8 | QVQLVESGGGLVQAGGSLRLSCAASGRIFNYYAMGWYRQAPGKERELVAAINSGGSTYADSVKGRFTISRDNAKNTVYLQMNSLKPEDTAVYYCAKDGQLQSVRERPSGYDHWGQGTQVTVSS | low polyreactivity
9 | QVQLQESGGCLVQADGSLRLSCAASGSIFGYYYMGWYRQAPGKDRELVATINICGITNYADSVKGRFTISRDNAKNTVYLQMNSLKPDDTAVYYCAADEYAQRDLGYWGQGTQVTVSS | low polyreactivity
10 | QVQLVESGGGLVQAGGSLRLSCAASGRTFYSYTMGWYRQAPGKERELVAAINRGGSTYYADSVKGRFTISRDNAKNTVYLQMNSLKPEDTAVYYCNVDWKVYGAPDYRIAWKYDYWGQGTQVTVSS | low polyreactivity
11 | QVQLVESGGGLVQAGGSLRLSCAASGSIFTGYAMGWYRQAPGKERELVARITKRGGSTYYADSVKGRFTISRDNAKNTVYLQMNSLKPEDTAVFYCNADRKFPYGSYETHDYWGQGTQVTVSS | high polyreactivity
12 | QVQLVESGGGLVQAGGSLRLSCAASGRTIASYTMGWYRPAPGKERELVAAISKSGGSTYYADSVKGRFTISRDNAKNTVYLQMNSLKPEDTAVYYCAKRRSGNVRKYDYWGQGTQVTVSS | high polyreactivity
13 | QVQLVESGGGLVQAGGSLRLSCAASGSIFLYYAMGWYRQAPGKERELVAAISGRAGSTYYADSVKGRFTISRDNAKNTVYLQMNSLKPEDTAVYYCAAGYWQGYPGFKYYWGQGTQVTVSS | low polyreactivity
14 | QVQLVESGGGLVQAGGSLRLSCAASGRTIRVNAMGWYRQAPRKERELVAAISRSTGDTYYADSVKGRFTNSRDNAKNTVYLQMHSLKPEDTAVYYCAADVPGGEGDYAYEYWGQGTQVNVSS | low polyreactivity
15 | QVQLVESGGGLVQAGGSLRLSCAASGFIFASYAMGWYRQAPGKERELVAAISSRGGRTYYADSVKGRFTISRDNAKNTVSLQMNSLKPEDTAVYYCAAENYWLAWYKGYDYCGQGTQVTVSS | high polyreactivity
16 | QVQLVESGGGLVQAGGSLRLSCAASGFTFPWYAMGWYRQAPGKERELVAAISTSGGSTYYADSVKGRFTISRDNAKNTVYLQMNSLKPEDTAVYYCAVGRKFGRYRVPFVVPYEYWGQGTQVTVSS | high polyreactivity
17 | QVQLVESGGGLVQAGGSLRLSCAASGNTFVPYAMGWYRQAPGKEREFVAAISSTSGSTYYADSVKGRFTISRDNAKNTVYLQMNSLTPEDTAVYYCAAANHKCSRMDYWGQGTQVTVSS | high polyreactivity
18 | QVHLVDSGGGLVQAGGSLRLSCAASGRIIDLYAMGCYRQAPGKEWELVAVIDIRDTSTYYADSVKGRFTISRDNAKNTVYLEMNSLKPEDTSVYYCAADYLVYDWYTYGYWGQGTQVTVSS | high polyreactivity
19 | QVQLVESGGGLVQAGGSLRLSCAASGRTFWSYAMGWYRQAPGKEREFVAAISRRGGITYYADSVKGRFTISRDNAKNTVYLQMNSLKPEDTAVYYCAKGAQSYYGGQVKYDYWGQGTQVTVSS | high polyreactivity
20 | QVQLVESGGGLVQAGGSLRLSCAASGRIFDPYAMGWYRQAPGKERELVAAIDWSDGGTYYADSVKGRFTISRDNAKNTVYLQMNSLKPEDTAVYYCAADLLDISYYDGMDYWGQGTQVTVSS | low polyreactivity
21 | QVQLVESGGGLVQAGGSLRLSCAASGRTFPYNAMGWYRQAPGKERELVAAITWSGGSTYYADSVKGRFTISRDNAKNTVYLQMNSLKPEDTAVYYCNKDFPVFEYDYWGQGTQVTVSS | low polyreactivity
22 | QDQLGESGGGLVQAGGSLRLICAASGRIFVSNTMGCYRQAPGKERELVATISRRGGITYYADSVKGRFTISRDNAKNTVYLQMNSLKPEDTAVYYCAAESYSFWLYDYCGQGTQVTVSS | high polyreactivity

Row | Sequence | polyreactivity (PSR sort gate)
23 | QVQLVESGGGLVQAGGSLRLSCAASGFTFDDYTMGWYRHAPGKERELVAAITSSGDSTYYADSVKGRFTISRDNAKNTVYLQMNSLKPEDTAVYYCAAQSYPFDRDYWGQGTQVTVSS | high polyreactivity
24 | QVQLVESGGGLVQAGGSLRLSCAASGYTFKTNDMGWYRPAPGKEREFVAAISAIGGSTYYADSVKGRFTISRDNAKNTVYLQMNSLKPEDTAVYYCAKDKSPYGYATNQYRKYYYWGQGTQVTVSS | low polyreactivity
25 | QVQLVESGGCLVQAGGSLRLTCAASGRTFYRYAMGWSRQAPRKERELVAAITTSGGSTYYADSVKGRFTISRDNAMTTVFLQKNSLNPDDTEVYYCAATYYGYHIRDDYWGQGTQVTVSS | low polyreactivity
26 | QVQLVESGGGLVQAGGSLRLSCAASGSIFDVYGMGWYRQAPGKEREFVADITSRGTRTYYADSVKGRFTISRDNAKNTVYLQMNSLKPEDTAVYYCNTLVGVDFWLVDYWGQGTQVTLSS | low polyreactivity
27 | QVQLVESGGGLVQAGGSLRLSCAASGRTFVVNAMGWYRQATGKERELVAAITRRGGITYYADSVKGRFTISRDTAKNTVYFQMNSLKPEDTAVLYCAADRSYYPDTRSTYGYNYWGQGTQVTVSS | low polyreactivity
28 | QVQLVESVGGLVQAGGSLRLSCAASGSTFVPYAMGWYRQAPGKERELVAAITTSGGNTYYADSVKGRFTISRDNAKNTVYLQMNSLKPEDTAVYYCAADTYRSFDYWGQGTQVTVSS | low polyreactivity
29 | QVQHVESGGGLEQARGSLRLTCAASGRTFRYYAMAWYRQAPGKERELVASISDGGSTNYADSVNGRFTITRDNAKNTVYLQMNRLKPEDTAVYYCNSKCYVWYLYDEFGYWGQGTQVTVSS | low polyreactivity
30 | QVQLVESGGGLLQAGGSLRLSCAASGSTYIGNAMGWYRQAPGKERELVAAITSGGSTNYADSVKGRFTISRDNAKNTVYLQKNSLKPEDTAVYYCAKPSRWGWTGFYAYDYWGQGTQVTVSS | low polyreactivity
31 | QVQLVESGGGLVQAGGSLRLSCAASGSIFLGNAMGWYRQAPGKERELVAAITSRGGRTYYADSVKGRFTISRDNAKNTVYLQMISLKPEDTAVYYCAADVSRPRAGFNYWGQGTQVTVSS | high polyreactivity
32 | QVQLVESGGGLVQAGASLRLSCAASGSTFYIYAMGWYRQAPGKERELVAGISSGSTYYADSVKGRFTISRDNAKNTVYLQMNSLKPEVTAVYYCAVDSYYFLKDPISYGLYYYWGQGTQVTVSS | low polyreactivity
33 | QVQLVESGGGLVQAGGSLRLSCAASGSIFRTNAMGWYRQAPGKERELVAAISRRGSNTYYADSVKGRFTISRDNAKNTVYLLMNSMKPEDTAVYYCAADVSGSKYDYWGQGTQVTVSS | high polyreactivity
34 | QVQLVESGGGLVQAGGSLRLSCAASGFTFNWYAMGWYRQAPGKERELVAAINSSGGNTYYADSVKGRFTISRDTAKNTVYLQMNSLKPDDTAVYYCVFVYVYDYYYWGQGTQVTVSS | high polyreactivity
35 | QVQLVESGGGLVQAGGSLRLSCAASGTFPDYAMGWYRQAPGKERELVAAITYRGGSTYYADSVKGRFTISRDNAKNTVYLQMNSLKPEDTAVYYCAADVVNAYKSLLVGDMYYWGQGTQVTVSS | high polyreactivity
36 | HVQRVESGGGLVQAGASLRLSCAASGGIFSPNAMGWYRQAPGKERELVAAISSNGGSTNYADSVKGRFTISRDNAKNTVYLQMNSLKPEDTAVYYCAGLQKRRSYWRPFYWGQGTQVTVSS | low polyreactivity
37 | QVQLVESGGGLVQAGGSLRLSCAASGRTLSRYTMGWYIQAPGKERELVAGITRSGGSTYYPDSEKGRFTISRDNAKNTVYLQMNSLKPEDTAVYYCAARWHFLTSSRFDYWGQGTQVTVSS | high polyreactivity
38 | QVQLVESGGGIVQAGGSLRLSCAASGRTFYRNAMGWYRPAPGKERELFAVISLNGGRTYYADSVKGRFTISRDNAKNTVYLQMNSLKPEDTAVYYCNKLTGPVFTRGFYYWGQGTQVTVSS | high polyreactivity
39 | QVQLVESGGGLVHAGGSLRLSCAASGSTLAGYAMGWYRQAPGKERELVAAIDWTGGSTTYSDSVKGRFTISRDNAKNTVYLQMNSLKPEDTAVYFCHVDLGVNGDYWGQGTQVTVSS | low polyreactivity
40 | QVQLVESGGGLVQAGGSLRLSCAASGFTFYKYTMGWYRQAPGKERELVAAISARGGSTYYADSVKGRFTISRDNAKNTVYLQMNSLKPEDTAVYYCAADYWRTYGLGYDYWGQGTQVTVSS | high polyreactivity
41 | QFQLVESGGGLVQAGGSLRLSCAASGRIFVLNAMGWYRQAPGKERELVAAISGSGSRTYYADSVKGRFTISRDNAKNTVYLQMNSLNPEDTAVYYCNNVSRRSEHTYDYWGQGTQVTVSS | high polyreactivity
42 | QVQLVESGGGLVQAGGSLRLSCAASGSIFGVNAMGWYRQAPGKERELVAAISSGGSTNYADSVKGRFTISRDNAKNTVYLQMNSLKPEDTAVYYCAADTKTRSNYDYWGQGTQVTVSS | low polyreactivity
43 | QVQLVESGGGLVQAGGSLRLSCAASGITFGDYAMGWYRQAPGKERELVAAISKRGGSTYYADSVKGRFTISRDNAKNTVYLQMNSLKPEDTAVYYCAADYYINAYYYWGQGTQVTVSS | high polyreactivity
